Measured values: the supplement of paper PMC11246515
± gives the standard deviation of the averaged measurements.

Assay: total protein half-life in vivo (active degradation + dilution); higher = more stable protein
[1] = E. coli NCM3722 delta-clpP delta-lon delta-hslV, growth: N-lim chemostat, doubling time 6 h
[2] = E. coli NCM3722 delta-clpP, growth: N-lim chemostat, doubling time 6 h
[3] = E. coli NCM3722 delta-hslV, growth: N-lim chemostat, doubling time 6 h
[4] = E. coli NCM3722 delta-lon, growth: N-lim chemostat, doubling time 6 h
[5] = E. coli NCM3722 delta-smpB, growth: N-lim chemostat, doubling time 6 h
[6] = wild type E. coli NCM3722, growth: C-lim chemostat, doubling time 3 h
[7] = wild type E. coli NCM3722, growth: C-lim chemostat, doubling time 6 h
[8] = wild type E. coli NCM3722, growth: C-lim chemostat, doubling time 12 h
[9] = wild type E. coli NCM3722, growth: N-lim chemostat, doubling time 6 h
[10] = wild type E. coli NCM3722, growth: N-lim chemostat, doubling time 12 h
[11] = wild type E. coli NCM3722, growth: P-lim chemostat, doubling time 6 h
[12] = wild type E. coli NCM3722, growth: P-lim chemostat, doubling time 12 h

MDKLLERFLNYVSLDTQSKAGVRQVPSTEGQWKLLHLLKEQLEEMGLINVTLSEKGTLMATLPANVPGDIPAIGFISHVDTSPDCSGKNVNPQIVENYRGGDIALGIGDEVLSPVMFPVLHQLLGQTLITTDGKTLLGADDKAGIAEIMTALAVLQQKKIPHGDIRVAFTPDEEVGKGAKHFDVDAFDARWAYTVDGGGVGELEFENFNAASVNIKIVGNNVHPGTAKGVMVNALSLAARIHAEVPADESPEMTEGYEGFYHLASMKGTVERADMHYIIRDFDRKQFEARKRKMMEIAKKVGKGLHPDCYIELVIEDSYYNMREKVVEHPHILDIAQQAMRDCDIEPELKPIRGGTDGAQLSFMGLPCPNLFTGGYNYHGKHEFVTLEGMEKAVQVIVRIAELTAQRK
total protein half-life in vivo [1]: 4.47 ± 0.093 h
total protein half-life in vivo [2]: 4.26 ± 0.49 h
total protein half-life in vivo [3]: 3.88 ± 0.14 h
total protein half-life in vivo [4]: 4.53 ± 0.13 h
total protein half-life in vivo [5]: 4.04 ± 0.089 h
total protein half-life in vivo [6]: 3.079 ± 0.019 h
total protein half-life in vivo [7]: 6.32 ± 1.1 h
total protein half-life in vivo [8]: 9.74 ± 0.59 h
total protein half-life in vivo [9]: 3.97 ± 0.13 h
total protein half-life in vivo [10]: 5.85 ± 0.25 h
total protein half-life in vivo [11]: 5.38 ± 0.2 h
total protein half-life in vivo [12]: 10.3 ± 0.14 h

MSKRKVAIIGSGNIGTDLMIKILRHGQHLEMAVMVGIDPQSDGLARARRMGVATTHEGVIGLMNMPEFADIDIVFDATSAGAHVKNDAALREAKPDIRLIDLTPAAIGPYCVPVVNLEANVDQLNVNMVTCGGQATIPMVAAVSRVARVHYAEIIASIASKSAGPGTRANIDEFTETTSRAIEVVGGAAKGKAIIVLNPAEPPLMMRDTVYVLSDEASQDDIEASINEMAEAVQAYVPGYRLKQRVQFEVIPQDKPVNLPGVGQFSGLKTAVWLEVEGAAHYLPAYAGNLDIMTSSALATAEKMAQSLARKAGEAA
total protein half-life in vivo [1]: 4.09 ± 1.4 h
total protein half-life in vivo [2]: 5.24 ± 2.6 h
total protein half-life in vivo [3]: 2.65 ± 0.48 h
total protein half-life in vivo [4]: 2.43 h
total protein half-life in vivo [5]: 2.21 ± 0.73 h
total protein half-life in vivo [6]: 2.71 ± 0.36 h
total protein half-life in vivo [7]: 4.45 h
total protein half-life in vivo [8]: 6.77 ± 2.3 h
total protein half-life in vivo [9]: 5.59 h
total protein half-life in vivo [10]: 4.45 h
total protein half-life in vivo [11]: 3.53 h
total protein half-life in vivo [12]: 6.2 ± 0.2 h

MLGKYKAVLALLLLIILVPLTLLMTLGLWVPTLAGIWLPLGTRIALDESPRITRKGLIIPDLRYLVGDCQLAHITNASLSHPSRWLLNVGTVELDSACLAKLPQTEQSPAAPKTLAQWQAMLPNTWINIDKLIFSPWQEWQGKLSLALTSDIQQLRYQGEKVKFQGQLKGQQLTVSELDVVAFENQPPVKLVGEFAMPLVPDGLPVSGHATATLNLPQEPSLVDAELDWQENSGQLIVLARDNGDPLLDLPWQITRQQLTVSDGRWSWPYAGFPLSGRLGVKVDNWQAGLENALVSGRLSVLTQGQAGKGNAVLNFGPGKLSMDNSQLPLQLTGEAKQADLILYARLPAQLSGSLSDPTLTFEPGALLRSKGRVIDSLDIDEIRWPLAGVKVTQRGVDGRLQAILQAHENELGDFVLHMDGLANDFLPDAGRWQWRYWGKGSFTPMNATWDVAGKGEWHDSTITLTDLSTGFDQLQYGTMTVEKPRLILDKPIVWVRDAQHPSFSGALSLDAGQTLFTGGSVLPPSTLKFSVDGRDPTYFLFKGDLHAGEIGPVRVNGRWDGIRLRGNAWWPKQSLTVFQPLVPPDWKMNLRDGELYAQVAFSAAPEQGFRAGGHGVLKGGSAWMPDNQVNGVDFVLPFRFADGAWHLGTRGPVTLRIAEVINLVTAKNITADLQGRYPWTEEEPLLLTDVSVDVLGGNVLMKQLRMPQHDPALLRLNNLSSSELVSAVNPKQFAMSGAFSGALPLWLNNEKWIVKDGWLANSGPMTLRLDKDTADAVVKDNMTAGSAINWLRYMEISRSSTKINLDNLGLLTMQANITGTSRVDGKSGTVNLNYHHEENIFTLWRSLRFGDNLQAWLEQNARLPGNDCPQGKECEEKQ
total protein half-life in vivo [2]: 5.985 ± 0.043 h
total protein half-life in vivo [3]: 6.03 ± 0.13 h
total protein half-life in vivo [4]: 6.22 ± 0.2 h
total protein half-life in vivo [5]: 5.57 ± 0.078 h
total protein half-life in vivo [6]: 3.236 ± 0.032 h
total protein half-life in vivo [7]: 6.2 ± 0.12 h
total protein half-life in vivo [8]: 10.8 ± 0.14 h
total protein half-life in vivo [9]: 6 ± 0.47 h
total protein half-life in vivo [10]: 12.3 ± 0.45 h
total protein half-life in vivo [11]: 6.06 ± 0.32 h
total protein half-life in vivo [12]: 12.17 ± 0.039 h

MSVENIVNINESNLQQVLEQSMTTPVLFYFWSERSQHCLQLTPILESLAAQYNGQFILAKLDCDAEQMIAAQFGLRAIPTVYLFQNGQPVDGFQGPQPEEAIRALLDKVLPREEELKAQQAMQLMQESNYTDALPLLKDAWQLSNQNGEIGLLLAETLIALNRSEDAEAVLKTIPLQDQDTRYQGLVAQIELLKQAADTPEIQQLQQQVAENPEDAALATQLALQLHQVGRNEEALELLFGHLRKDLTAADGQTRKTFQEILAALGTGDALASKYRRQLYALLY
total protein half-life in vivo [1]: 4.51 ± 0.3 h
total protein half-life in vivo [2]: 4.61 ± 0.092 h
total protein half-life in vivo [3]: 5.26 ± 0.61 h
total protein half-life in vivo [4]: 6.044 ± 0.054 h
total protein half-life in vivo [5]: 4.75 ± 0.35 h
total protein half-life in vivo [6]: 3.1 ± 0.24 h
total protein half-life in vivo [7]: 6.038 ± 0.01 h
total protein half-life in vivo [8]: 11 ± 0.52 h
total protein half-life in vivo [9]: 5.25 ± 0.16 h
total protein half-life in vivo [10]: 8.64 ± 0.25 h
total protein half-life in vivo [11]: 5.31 ± 0.12 h
total protein half-life in vivo [12]: 11.9 ± 0.69 h
